According to patent US20230104769A1 (MABWELL SHANGHAI BIOSCIENCE, published 2023):

Tests used:
[1] = target: CTLA4 (Cat: 11159-H08H, Sino Biological Inc.) (human, UniProt P16410 36-162); assay: ELISA, plate coated with the protein at 1 µg/mL, biotinylated h317, HRP-streptavidin
Method: (§1) The plates were washed three times with PBS subsequently, and 5% BSA-PBS was added for blocking for 60 min at 37° C. […] Again, the plates were washed four times with PBST, then HRP-streptavidin (Cat: 019-035-098, Jackson Immuno Research) with a dilution of 1:100 was added for a 30 min incubation at 37° C. Once again, the plates were washed four times with PBST, and TMB substrate was added for developing color through incubating for 10 min at 37° C., then the reaction was terminated by adding 2 M HCl. With 630 nm as reference wavelength, the absorbance at a wavelength of 450 nm (A450 nm-630 nm) of each well in the plates was read and recorded.

[2] = target: CD28 (Cat: 11524-HCCH, Sino Biological Inc.) (human, UniProt P10747 19-152); assay: as above
Method: as §1

[3] = target: T1, recombinant human PD-1 protein (NCBI accession No.: NP_005009.2, 21aa-167aa) (human, UniProt Q15116 21-167); assay: as above
T1 construct: range 21-167; also called recombinant human PD-1 extracellular domain protein; PD-1-ECD
T1 sequence (Q15116 21-167 limits assumed, form in doubt): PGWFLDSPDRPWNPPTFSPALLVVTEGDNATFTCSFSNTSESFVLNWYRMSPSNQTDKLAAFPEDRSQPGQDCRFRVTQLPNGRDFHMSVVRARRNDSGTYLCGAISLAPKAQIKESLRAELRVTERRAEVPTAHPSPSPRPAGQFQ
Method: as §1

[4] = target: T2, human PD-1-hFc (NCBI accession No.: NP_005009.2, 21aa-167aa, Lot: 20180329) (human, UniProt Q15116 21-167); assay: competition ELISA, plate-bound PD-1-hFc, competitor PD-L2-hFc-Biotin 2 µg/mL; competitor PD-L2
T2 construct: range 21-167; not shown: human Fc (hFc)
T2 sequence (Q15116 21-167 limits assumed, form in doubt): as above
Method: (§2) Afterwards, HRP-streptavidin (Cat: 52438, Sigma) which was diluted at a dilution of 1:2000 was added to the plate for reacting for 30 min. Later, TMB substrate was added to develop color for 15 min, which was followed by the addition of 2 M HCl to terminate the reaction and then the plate was detected by a microplate reader. With 630 nm as reference wavelength, the absorbance at 450 nm (A450 nm-630 nm) of each well in the plate was read and recorded.

[5] = target: T2, human PD-1-hFc (NCBI accession No.: …); assay: competition ELISA, plate-bound PD-1-hFc, competitor PD-L1-mFc 1 µg/mL; competitor PD-L1
Method: as §2, with “Afterwards, HRP-anti-mouse Fc” for “Afterwards, HRP-streptavidin”, “(Cat: 115-035-071, Jackson Immuno Research)” for “(Cat: 52438, Sigma)”, “of 1:5000” for “of 1:2000”, “for 45” for “for 30”, “substrate (Cat: ME142, Beijing Taitianhe Biotech Co., Ltd.)” for “substrate”

[6] = target: T1, recombinant human PD-1 protein (NCBI …); assay: BLI (Octet QKe), biotin-labelled antibody on streptavidin sensor, PD-1 100 nM-12.5 nM
Method: Determination of the binding kinetics: the affinity of the antibody was determined with Octet QKe system from Fortebio using an assay of capturing biotin-labeled antibody with streptavidin. […] Both the binding and dissociating were conducted for 300 s.

N49A = target: T3, N49A; assay: flow cytometry on transfected HEK293 cells, antibody 2 µg/ml, goat anti-human IgG(Fc)-Cy5; no negative-control bar is drawn
T3 construct: also called full-length human PD-1 N49A expressed on HEK293 cells; PD-1-mut N49A; not shown: EGFP of the expression vector, if it is fused to PD-1
T3 sequence (chain, as listed by the source N49A N49A limits assumed): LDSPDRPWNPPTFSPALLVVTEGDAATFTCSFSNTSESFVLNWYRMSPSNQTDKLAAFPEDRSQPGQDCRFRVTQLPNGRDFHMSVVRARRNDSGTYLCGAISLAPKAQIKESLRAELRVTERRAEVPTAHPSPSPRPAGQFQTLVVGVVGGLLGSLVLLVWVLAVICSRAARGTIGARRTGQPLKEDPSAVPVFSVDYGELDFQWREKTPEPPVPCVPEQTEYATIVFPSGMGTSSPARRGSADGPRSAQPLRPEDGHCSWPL
Method: The mutants obtained were inserted into an expression vector carrying EGFP to construct five plasmids expressing full-length human PD-1 (WT, N49A, N58A., N116A, N74A). […] 2 days after the transfection, the cells were collected to a 96-well plate, centrifuged at 1500 rpm for 2 minutes, and the supernatants in the wells were discarded. […] The working concentration of the primary antibodies was 2 μg/ml, and cells without primary antibodies added were used as negative controls. The mixtures obtained were centrifuged at 1500 rpm for 2 minutes, and supernatants were discarded. The cells in each well were resuspended by adding 200 μl PBS and the suspensions obtained were then centrifuged at 1500 rpm for 2 minutes, then supernatants were discarded. Later, the obtained cells were incubated with 200 μl goat anti-human IgG(Fc)-Cy5 (Cat: 12136, Lot: 017M4800V, Sigma) diluted with 5% BSA added into each well for 1 h at room temperature, then centrifuged at 1500 rpm for 2 minutes, and supernatants were discarded. The cells were resuspended by adding 200 μl PBS and the suspensions obtained were then centrifuged at 1500 rpm for 2 minutes, then supernatants were discarded. The cells again were resuspended by adding 200 μl PBS thereto and detected by flow cytometry (B49007AD, SNAW31211).

[7] = target: T4, cynomolgus monkey PD-1 (Cat: 90311-C08H, Sino Biological Inc.) (cynomolgus monkey, UniProt B0LAJ3 25-170); assay: ELISA, biotinylated h317 on plate-bound PD-1
T4 construct: Bought recombinant protein; not shown: The vendor's tag
T4 sequence (B0LAJ3 entry or part of it C08H C08H limits assumed): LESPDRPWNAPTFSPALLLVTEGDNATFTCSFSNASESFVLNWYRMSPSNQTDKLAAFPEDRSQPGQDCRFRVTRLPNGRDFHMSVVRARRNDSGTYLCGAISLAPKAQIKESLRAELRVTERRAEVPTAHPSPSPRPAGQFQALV
Method: as §1, with “immuno” for “Immuno”

[8] = target: T1, recombinant human PD-1 protein (NCBI …); assay: ELISA, biotinylated h317 on plate-bound PD-1
Method: as §1, with “immuno” for “Immuno”

Chain of CTLA4 (Cat: 11159-H08H, Sino Biological Inc.) (P16410 36-162 limits assumed): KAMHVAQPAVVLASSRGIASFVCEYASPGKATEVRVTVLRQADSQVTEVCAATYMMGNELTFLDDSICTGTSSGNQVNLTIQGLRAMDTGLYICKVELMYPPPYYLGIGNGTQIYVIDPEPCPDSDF

EC50 (read off the curve) [3]: ~0.001 nM | IC50 [4]: 1.2 nM | IC50 [5]: 1.4 nM | Kd [6]: 6.16 nM | koff [6]: 0.00095 s⁻¹ | kon [6]: 154000 M⁻¹ s⁻¹ | binding result (N49A): binds | EC50 [7]: 0.0182 nM | EC50 [8]: 0.0047 nM
B1: h317 (humanized anti-human PD-1 antibody) (antibody, V domains shown)
VH: EVQLVESGGGLVKPGGSLRLSCAASGFTFSSYDMSWVRQAPGKGLEWVATISGGGSYTYYPDSVKGRFTISRDNAKNSLYLQMNSLRAEDTAVYYCASPDSSGVAYWGQGTLVTVSS
VL: DIVMTQSPLSLPVTPGEPASITCKASQDVETVVAWYLQKPGQSPRLLIYWASTRHTGVPDRFSGSGSGTDFTLKISRVEAEDVGVYYCQQYSRYPWTFGQGTKL
notes: also called h317-biotin; biotinylated h317
binding result [1]: no binding (tested: 1 nM (log(nM) 0 on the axis)) | binding result [2]: no binding (tested: 1 nM (log(nM) 0 on the axis))
